# Entries after “also recorded” stand apart in the source; their conditions may differ. Bridge positions count the residues as written; N and C are the ends. Square brackets hold non-standard residues; d marks the D form. Peptide text beside a SMILES is read from it. * marks the point of attachment. Phe(ol) = N[C@H](CO)Cc1ccccc1; NHCH(CH2OH)2 = OCC(CO)N*
# What was measured:
# receptor = settings: Babich et al; in words; cited from earlier work
# growth hormone = settings: relative to somatostatin = 100%; cited from earlier work
# [1] = Metabolic stability in rat kidney homogenate; format: in vitro ADME; settings: 37° C., approx. 1 and 3 hours, HPLC; FIG. 1; in words
# Method: Rat brain and kidney homogenates were produced by homogenising brain (1.71 g) and kidneys (2.41 g) in 10 vols phosphate buffered saline and centrifuging at 2000 rpm for 5 minutes.
# Compound 4 (50 μg) was radiolabelled by stannous reduction of ^99m TcO4^- (0.2 GBq) at pH 9.0.
# ^99m Tc-Compound 4 solution (200 μl) was mixed with phosphate buffered saline (800 μl, control) rat kidney homogenate (800 μl) and rat brain homogenate (800 μl) and incubated at 37° C. HPLC analyses using the system described in Example 13 for ^99m Tc labelled peptides were performed on each sample at approx. 1 and 3 hours post-mixing.
# carboxypeptidases = settings: in words; cited from earlier work
# [2] = in words; cited from earlier work
# [3] = Biodistribution in rats: blood, kidney/bladder/urine, liver, gut, thyroid; format: in vivo, Male Wistar rats; settings: rat, i.v., carrier free (CF)
# Method: (§1) Male Wistar rats were injected intravenously, under light anaesthesia with the test agent. At 2 minutes, 1 hour and 4 hours post-injection animals were sacrificed by cervical dislocation and various organs and tissue samples were removed for assay of radioactive content. The percentage injected dose in all dissected organs was calculated. In addition the % dose/gram tissue and the relative concentration of activity was calculated for selected organs. Relative concentration is the proportion of total activity in the organ divided by the proportion of bodyweight comprised by the organ. Thus, if a compound is uniformly disseminated throughout the body according to tissue weight then a given organ will have a relative concentration=1. A relative concentration>1 implies sequestration and/or retention of the compound and is a useful index where the absolute uptake (% injected dose per organ) is low.
# (§2) Organs in which the test agent were looked for included the adrenals and the pancreas, where somatostatin receptors are known to be enriched (vide supra).
# somatostatin receptors = experiment: Biodistribution in rats: uptake/retention in adrenals and pancreas (somatostatin receptor-enriched tissues); format: in vivo, Male Wistar rats; settings: rat, i.v.; for Adrenal % Injected dose / Adrenal Relative concentration / Pancreas % Injected dose / Pancreas Relative concentration: carrier free (CF)
# Method: In the present invention the peptides studied were radiolabelled with either ^123 I or ^99m Tc and their biodistributions studied in rats with organs of particular interest being the adrenals and pancreas. This is because somatostatin receptors have been shown in vitro to be enriched in a number of tissues including adrenals^(11,12), pancreas^(13,14), pituitary^(11,14) and brain^(15). […] Brain somatostatin receptors are not visualised when the compound is administered in vivo. In this study measurement of pituitary uptake was not sufficiently sensitive to distinguish specific and non-specific effects.
# Carrier Effect on ^123 I--Compounds 1 and 6
# For ^123 I--Compounds 1 and 6 the effect of carrier peptide on the biodistribution of the carrier-free ^123 I peptide was assessed by preparing 2 ml of a phosphate buffered solution of HPLC-purified carrier-free iodinated peptide as described above but then subdispensing 1 ml of this solution into a second vial containing carrier peptide.
# A similar `carrier-effect` is anticipated for technetium labelled peptides, therefore the only valid comparison of biodistribution data for ^99m Tc and ^123 I labelled peptides is when both are carrier-added (CA).
# as §1, §2
molecule,measurement,setting,value
"CSCC[C@H](NC=O)C(=O)N[C@@H](CC(C)C)C(=O)N[C@@H](Cc1ccccc1)C(=O)NCCCCCCNC(=O)c1ccc(NN)nc1 [HP3, fMLFNH(CH2)6 NH--HYNIC]",in vitro receptor binding affinity,receptor,marginally better in vitro receptor binding affinity than HP2
C[C@H](O)[C@H](CO)NC(=O)[C@@H]1CSSC[C@H](NC(=O)[C@H](N)Cc2ccccc2)C(=O)N[C@@H](Cc2ccccc2)C(=O)N[C@H](Cc2c[nH]c3ccccc23)C(=O)N[C@@H](CCCCN)C(=O)N[C@@H]([C@@H](C)O)C(=O)N1 [D-Thr(ol)],Relative potency (%) of growth hormone inhibition in vivo,growth hormone,1100%
C[C@H](O)[C@@H](NC(=O)[C@@H]1CSSC[C@H](NC(=O)[C@H](N)Cc2ccccc2)C(=O)N[C@@H](Cc2ccccc2)C(=O)N[C@H](Cc2c[nH]c3ccccc23)C(=O)N[C@@H](CCCCN)C(=O)N[C@@H]([C@@H](C)O)C(=O)N1)C(N)=O [D-Thr(NH2)],Relative potency (%) of growth hormone inhibition in vivo,growth hormone,1160%
somatostatin,metabolic stability in rat kidney homogenate,[1],rapidly metabolised
same,susceptibility to metabolism by carboxypeptidases,carboxypeptidases,particularly susceptible to metabolism by carboxypeptidases
C[C@@H](O)[C@@H]1NC(=O)[C@H](CCCCN)NC(=O)[C@@H](Cc2c[nH]c3ccccc23)NC(=O)[C@H](Cc2ccccc2)NC(=O)[C@@H](NC(=O)[C@H](N)Cc2ccccc2)CSSC[C@@H](C(=O)N[C@H](CO)Cc2ccccc2)NC1=O [Phe(ol)] (H-[dF]CF[dW]KTC[Phe(ol)]; disulfide 2-7),Relative potency (%) of growth hormone inhibition in vivo,growth hormone,650%
C[C@@H](O)[C@@H]1NC(=O)[C@H](CCCCN)NC(=O)[C@@H](Cc2c[nH]c3ccccc23)NC(=O)[C@H](Cc2ccccc2)NC(=O)[C@@H](NC(=O)[C@H](N)Cc2ccccc2)CSSC[C@@H](C(=O)NC(CO)CO)NC1=O [Ser(ol)] (H-[dF]CF[dW]KTC-{NHCH(CH2OH)2}; disulfide 2-7),Relative potency (%) of growth hormone inhibition in vivo,growth hormone,2800%
C[C@@H](O)[C@@H]1NC(=O)[C@H](CCCCN)NC(=O)[C@@H](Cc2c[nH]c3ccccc23)NC(=O)[C@H](Cc2ccccc2)NC(=O)[C@@H](NC(=O)[C@H](N)Cc2ccccc2)CSSC[C@@H](C(=O)N[C@H](CO)[C@@H](C)O)NC1=O [Thr(ol)],Relative potency (%) of growth hormone inhibition in vivo,growth hormone,7000%
C[C@@H](O)[C@@H]1NC(=O)[C@H](CCCCN)NC(=O)[C@@H](Cc2c[nH]c3ccccc23)NC(=O)[C@H](Cc2ccccc2)NC(=O)[C@@H](NC(=O)[C@H](N)Cc2ccccc2)CSSC[C@@H](C(=O)N[C@H](CO)[C@@H](C)O)NC1=O [Octreotide],biological half-life,[2],much longer biological half-life than natural somatostatin
I-SS14: 123I labelled Somatostatin-14,Blood % Injected dose,[3]; 2 min pi,16.2 % Injected dose
same,Gut % Injected dose,[3]; 2 min pi,9.9 % Injected dose
same,"Kidney, Bladder & Urine % Injected dose",[3]; 2 min pi,3.4 % Injected dose
same,Liver % Injected dose,[3]; 2 min pi,7.2 % Injected dose
same,Thyroid % Injected dose,[3]; 2 min pi,0.11 % Injected dose
same,Blood % Injected dose,[3]; 1 hr pi,5.5 % Injected dose
same,Gut % Injected dose,[3]; 1 hr pi,19.9 % Injected dose
same,"Kidney, Bladder & Urine % Injected dose",[3]; 1 hr pi,9.9 % Injected dose
same,Liver % Injected dose,[3]; 1 hr pi,2.2 % Injected dose
same,Thyroid % Injected dose,[3]; 1 hr pi,1.10 % Injected dose
same,Blood % Injected dose,[3]; 4 hr pi,6.1 % Injected dose
same,Gut % Injected dose,[3]; 4 hr pi,12.1 % Injected dose
same,"Kidney, Bladder & Urine % Injected dose",[3]; 4 hr pi,17.9 % Injected dose
same,Liver % Injected dose,[3]; 4 hr pi,2.4 % Injected dose
same,Thyroid % Injected dose,[3]; 4 hr pi,2.00 % Injected dose
same,somatostatin (SS) receptor binding in adrenals and pancreas,"somatostatin receptors; 2 min, 1 and 4 hours p.i., in words, listed as 123 I-SS14","can be detected in the adrenal glands and pancreatic tissue; also recorded: marked SS-like binding of ^123 I-SS14 at 2 minutes post-injection (p.i.), but this activity was not retained at 1 and 4 hours p.i"
same,Adrenal % Injected dose,somatostatin receptors; 2 min pi,0.19 % Injected dose
same,Adrenal Relative concentration,somatostatin receptors; 2 min pi,7.6
same,Pancreas % Injected dose,somatostatin receptors; 2 min pi,2.3 % Injected dose
same,Pancreas Relative concentration,somatostatin receptors; 2 min pi,4.5
same,Adrenal % Injected dose,somatostatin receptors; 1 hr pi,0.01 % Injected dose
same,Adrenal Relative concentration,somatostatin receptors; 1 hr pi,0.4
same,Pancreas % Injected dose,somatostatin receptors; 1 hr pi,0.3 % Injected dose
same,Pancreas Relative concentration,somatostatin receptors; 1 hr pi,0.6
same,Adrenal % Injected dose,somatostatin receptors; 4 hr pi,0.01 % Injected dose
same,Adrenal Relative concentration,somatostatin receptors; 4 hr pi,0.3
same,Pancreas % Injected dose,somatostatin receptors; 4 hr pi,0.2 % Injected dose
same,Pancreas Relative concentration,somatostatin receptors; 4 hr pi,0.4
